For assay [1], the target named is ECM. Briefly: ECM binding assay, ECL reaction, value divided by that of MRA.
Assay [2] deals with ECM. Briefly: ECM binding assay, ECL reaction.
The next assay concerns the target T1, human CLDN4 (human, UniProt O14493 1-209).
T1 construct: also called hCLDN4; hCLDN4/BaF
T1 sequence: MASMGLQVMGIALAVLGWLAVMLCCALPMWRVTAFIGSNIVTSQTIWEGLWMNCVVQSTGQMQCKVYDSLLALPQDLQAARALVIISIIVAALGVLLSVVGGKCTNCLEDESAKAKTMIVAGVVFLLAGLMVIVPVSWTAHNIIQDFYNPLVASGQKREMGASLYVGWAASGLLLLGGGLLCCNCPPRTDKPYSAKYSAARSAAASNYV
Nature of the assay: flow cytometry on hCLDN4/BaF (Ba/F3 transfectant), 15 micro g/ml antibody, Alexa Fluor 488 anti-human IgG; histogram against KLH/TR01. The text has this:
FIG. 35-1. Binding activity of anti-CLDN6/CD3 bispecific antibodies (CS2201, CS2961, AH05/TR01, and 6PHU3/TR01) to human CLDN family proteins (CLDN3, CLDN4, CLDN6, and CLDN9). Binding activity of anti-CLDN6/CD3 bispecific antibodies to BaF3 transfectants (hCLDN6/BaF, hCLDN3/BaF, hCLDN4/BaF, and hCLDN9/BaF) was examined by flow cytometer in a concentration of 15 micro g/ml, and plotted as histogram. KLH/TR01 was used as a negative control. The specificity of CS2961 to human CLDN6 was highest among the tested antibodies.
(§1) Amino acid sequence are highly conserved among CLDN3, CLDN4, CLDN6 and CLDN9. Thus we examined CLDN6 binding specificity by FACS analysis. hCLDN6/BaF, hCLDN3/BaF, hCLDN4/BaF, and hCLDN9/BaF were incubated with CS2201, CS2961, AH05/TR01 and 6PHU3/TR01 at 15 micro g/ml. KLH/TR01 generated in Example 2-3 was used as a staining control. Binding of each antibody was detected with Alexa Fluor 488-conjugated anti human IgG (Invitrogen). Dead cells were separated by eFlour 780 (Invitrogen) staining.
(In flow cytometry, cells or beads pass a laser one at a time.)

In assay [3] the target is T2, human CLDN3 (human, UniProt O15551 1-220).
T2 construct: also called hCLDN3; hCLDN3/BaF
T2 sequence: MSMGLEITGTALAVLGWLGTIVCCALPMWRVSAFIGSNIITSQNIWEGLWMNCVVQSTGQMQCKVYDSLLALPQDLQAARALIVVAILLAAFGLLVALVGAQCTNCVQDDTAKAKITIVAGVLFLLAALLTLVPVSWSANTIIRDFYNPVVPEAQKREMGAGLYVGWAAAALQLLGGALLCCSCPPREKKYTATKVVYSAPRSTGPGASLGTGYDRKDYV
Briefly: flow cytometry on hCLDN3/BaF (Ba/F3 transfectant), 15 micro g/ml antibody, Alexa Fluor 488 anti-human IgG; histogram against KLH/TR01. On the procedure:
as §1

For the next assay, the target named is T3, mouse CLDN9 (mouse, UniProt Q9Z0S7 1-217).
T3 construct: also called mCLDN9; mCLDN9/FS293
T3 sequence: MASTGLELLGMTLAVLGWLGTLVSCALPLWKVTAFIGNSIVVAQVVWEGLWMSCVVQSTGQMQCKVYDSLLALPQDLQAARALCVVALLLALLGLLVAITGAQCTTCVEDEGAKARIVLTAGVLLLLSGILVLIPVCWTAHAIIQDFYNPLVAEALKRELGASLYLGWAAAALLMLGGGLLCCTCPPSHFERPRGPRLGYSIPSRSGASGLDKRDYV
Briefly: flow cytometry, FreeStyle 293-F transfectants expressing mouse CLDN9, anti-human IgG Alexa Fluor 647; MFI. Here is the method: (§2) Antibodies were mixed with FreeStyle™ 293-F cells transiently expressed human and mouse CLDN3, 4, 6, and 9 at final concentration of 10 micro g/mL. After 1 hour of incubation, cells were washed by 0.1% BSA containing D-PBS(−), and incubated in 5 micro g/mL of either Goat anti-Human IgG (H+L) Cross-Adsorbed Secondary Antibody, Alexa Fluor 647 (Invitrogen, A21445) or Goat anti-Mouse IgG (H+L) Highly Cross-Adsorbed Secondary Antibody, Alexa Fluor 647 (Invitrogen, A21236), for 1 hour. Cells were then washed with 0.1% BSA containing D-PBS(−), resuspended in 5 micro L of 0.1% BSA containing D-PBS(−), and analyzed by flow cytometer (iQue Screener, intellicyte).

For another assay, the target named is T4, mouse CLDN3 (mouse, UniProt Q9Z0G9 1-219).
T4 construct: also called mCLDN3; mCLDN3/FS293
T4 sequence: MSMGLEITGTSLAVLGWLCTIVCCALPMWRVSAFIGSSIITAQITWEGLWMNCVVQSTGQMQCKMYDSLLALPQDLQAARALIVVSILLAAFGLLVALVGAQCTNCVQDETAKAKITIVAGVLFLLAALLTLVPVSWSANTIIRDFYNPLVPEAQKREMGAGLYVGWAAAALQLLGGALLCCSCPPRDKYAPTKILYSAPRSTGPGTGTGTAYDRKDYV
Nature of the assay: flow cytometry, FreeStyle 293-F transfectants expressing mouse CLDN3, anti-human IgG Alexa Fluor 647; MFI. Here is the method: as §2

Another assay has as its target T5, mouse CLDN6 (mouse, UniProt Q9Z262 1-219).
T5 construct: also called mCLDN6; mCLDN6/FS293
T5 chain: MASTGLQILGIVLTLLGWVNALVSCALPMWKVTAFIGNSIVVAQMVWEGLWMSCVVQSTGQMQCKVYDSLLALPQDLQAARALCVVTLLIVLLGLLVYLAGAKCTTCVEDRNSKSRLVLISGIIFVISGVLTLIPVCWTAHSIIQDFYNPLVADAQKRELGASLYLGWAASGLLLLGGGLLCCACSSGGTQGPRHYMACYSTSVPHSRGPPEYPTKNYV
Briefly: flow cytometry, FreeStyle 293-F transfectants expressing mouse CLDN6, 10 micro g/mL antibody, anti-human IgG Alexa Fluor 647; MFI. Here is the method:
as §2

Assay [4] addresses T2, human CLDN3. Nature of the assay: flow cytometry, FreeStyle 293-F transfectants expressing human CLDN3, anti-human IgG Alexa Fluor 647; MFI. On the procedure:
as §2

Residue numbers refer to the chain shown, from its start.

With MRA (antibody), the Luminescence ratio vs MRA with ECM [1] came out at 1 fold. This molecule also gave a Luminescence in the assay with ECM [2] of 13000.

B1: bivalent IgG antibody 25H0021/20L0072 (antibody, V domains shown)
VH: QVQLVESGGGVVQPGRSLRLSCAASGFTFSSLTMSWVRQAPGQGLEWMGTISSGGGRTYYPDSVKGRFTISRDNSKNTLYLQMNSLRAEDTAVYYCARGDYRYDGFAYWGQGTLVTVSS
VL: DIQMTQSPSSLSASVGDRVTITCRASYNIDSYLAWYQQKPGKAPKLLIYASTLLVDGVPSRFSGSRSGTDFTLTISSLQPEDFATYYCQHYYSIPYTFGQGTKLEIK
In the case of B1, the Luminescence ratio vs MRA with ECM [1] stood at 2.52 fold. The molecule further returned a Luminescence with ECM [2] of 32900.

B2: bivalent IgG antibody 25H0024/20L0072 (antibody, V domains shown)
VH: B1 VH with L32V
VL: B1 VL
As to B2, the Luminescence ratio vs MRA with ECM [1] was 2.27 fold. This molecule also came in with a Luminescence in the assay with ECM [2] of 29600.

B3: bivalent IgG antibody 25H0042/20L0072 (antibody, V domains shown)
VH: B1 VH with L32Y, T33V
VL: B1 VL
Take B3: the Luminescence ratio vs MRA in the assay with ECM [1] came to 3.1 fold. The same molecule showed a Luminescence with ECM [2] of 40400.

B4: bivalent IgG antibody 25H0176/20L0072 (antibody, V domains shown)
VH: B1 VH with L32Y, G54K
VL: B1 VL
Consider B4, for which the Luminescence ratio vs MRA in the assay with ECM [1] turned out to be 5.91 fold. This molecule had a Luminescence in the assay with ECM [2] of 77000.

B5: CS2201 (bispecific antibody, V domains shown)
VH 1: B1 VH with L32Y
VL 1: B1 VL with A50Y
VH 2: QVQLVESGGGVVQPGGSLRLSCAASGFTFSNAWMHWVRQAPGKGLEWVAQIKDKSQNYATYVAESVKGRFTISRADSKNSIYLQMNSLKTEDTAVYYCRYVHYAAGYGVDIWGQGTTVTVSS
VL 2: DIVMTQSPLSLPVTPGEPASISCRSSQPLVHSNRNTYLHWYQQKPGQAPRLLIYKVSNRFSGVPDRFSGSGSGTDFTLKISRVEAEDVGVYYCGQGTQVPYTFGQGTKLEIK
notes: Fab arm exchange, silent Fc; also called 25H/20L0532//TR01
For B5, the binding result in the assay with human CLDN4 and in the assay with human CLDN3 [3] was “binds” in each case.

B6: bivalent IgG antibody 25H0562/20L0072 (antibody, V domains shown)
VH: B1 VH with L32Y, Y108M
VL: B1 VL
Take B6: in the assay with ECM [1], the Luminescence ratio vs MRA was determined as 2.5 fold. The molecule also displayed a Luminescence with ECM [2] of 32600.

B7: bivalent IgG antibody 25H0322/20L0072 (antibody, V domains shown)
VH: B1 VH with L32Y, D62F
VL: B1 VL
Regarding B7, the Luminescence ratio vs MRA with ECM [1] is 5.41 fold. The same molecule yielded a Luminescence in the assay with ECM [2] of 70600.

B8: AH05/TR01 (bispecific antibody, V domains shown)
VH 1: EVQVEQSGPELVKPGASVKISCKTSGYTFTEYTMHWVKQSHGKSLEWIGGINPNNGNTRYNQKFKGKATLTVDKSSSTAYMELRTLTSEDSAVYYCARCGDFDLFFFFAYWGQGTLVTVSA
VL 1: DIVMTQSQKFMSTSVGDRVSVTCKASQNVGSNVAWYQQKPGQSPEGLISSASSRFSGVPDRFTGSGSGTDFTLTITNVQSEDLAEYFCQQYNSYPFTFGSGTELEIK
VH 2: B5 VH 2
VL 2: B5 VL 2
notes: IgG format by Fab arm exchange, silent Fc; also called anti-CLDN6/CD3 bispecific antibody AH05/TR01
As to B8, the binding result with mouse CLDN9 is “no binding (tested: 10 micro g/mL)”; in the assay with mouse CLDN3 it was “no binding (tested: 10 micro g/mL)”; with mouse CLDN6 it was “binds”; with human CLDN3 [4], “no binding (tested: 10 micro g/mL)”.

B9: AE3-20/TR01 (bispecific antibody, V domains shown)
VH 1: EVKLVESGGGLVKPGGSLKLSCAASGFTFNSYTMSWVRQTPAKRLEWVVTISSGGGRTYYPDSVKGRFTISRDNARNTLYLQMSSLRSEDTAMYYCIRGDYRYDGFAYWGQGTLVTVST
VL 1: DIQMTQSPASLSASVGETVTITCRASENIDSYLAWYQQKQGKSPQLLVYASTLLVDGVPSRFSGSRSGTQFSLKINSLQSEDVARYYCQHYYSIPYTFGSGTKLEIK
VH 2: B5 VH 2
VL 2: B5 VL 2
notes: also called anti-CLDN6/CD3 bispecific antibody AE3-20/TR01; AE3.20H/AE3.20L//TR01
B9: the binding result in the assay with mouse CLDN3 and with human CLDN3 [4] was “no binding (tested: 10 micro g/mL)” each time.

For the origin of these results see patent US20230057904A1 (Chugai, published 2023).
